The source of these data is paper PMC2917185 (Nature structural & molecular biology, 2010).

For assay [1], the target named is LHCP (light-harvesting chlorophyll a/b binding protein), fluorescein-labeled (UniProt P07371 38-269). As to the kind of experiment: fluorescence polarisation. On the technique in general: Fluorescence polarisation rises when a labelled molecule tumbles more slowly, as on binding a larger partner.
Assay [2] shares this target. As to the kind of experiment: fluorescence polarisation. The source holds these as a separate data set.

By Kd is commonly meant the concentration at which binding is half-saturated.

Numbering of substitutions follows the chain as printed. Numbers in names are those of the source. Where “and” joins values, the source holds several entries; their conditions need not be identical. Equal entries are not always repeated. Where two headings read alike, the source gives them in different places.

B1: cpSRP (chloroplast signal recognition particle, cpSRP43 with cpSRP54) (complex)
chain 1: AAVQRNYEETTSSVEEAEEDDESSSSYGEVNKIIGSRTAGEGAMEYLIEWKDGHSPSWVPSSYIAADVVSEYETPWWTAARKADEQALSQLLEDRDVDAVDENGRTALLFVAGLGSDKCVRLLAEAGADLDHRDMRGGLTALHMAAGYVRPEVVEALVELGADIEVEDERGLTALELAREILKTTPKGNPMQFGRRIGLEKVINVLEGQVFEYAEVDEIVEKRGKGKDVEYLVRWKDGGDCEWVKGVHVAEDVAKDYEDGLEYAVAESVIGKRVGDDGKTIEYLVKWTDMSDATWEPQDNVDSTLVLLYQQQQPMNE
chain 2: EMFGQLTGGLEAAWSKLKGEEVLTKDNIAEPMRDIRRALLEADVSLPVVRRFVQSVSDQAVGMGVIRGVKPDQQLVKIVHDELVKLMGGEVSELQFAKSGPTVILLAGLQGVGKTTVCAKLACYLKKQGKSCMLIAGDVYRPAAIDQLVILGEQVGVPVYTAGTDVKPADIAKQGLKEAKKNNVDVVIMDTAGRLQIDKGMMDELKDVKKFLNPTEVLLVVDAMTGQEAAALVTTFNVEIGITGAILTKLDGDSRGGAALSVKEVSGKPIKLVGRGERMEDLEPFYPDRMAGRILGMGDVLSFVEKATEVMRQEDAEDLQKKIMSAKFDFNDFLKQTRAVAKMGSMTRVLGMIPGMGKVSPAQIREAEKNLLVMEAMIEVMTPEERERPELLAESPERRKRIAKDSGKTEQQVSALVAQIFQMRVKMKNLMGVMEGGSIPALSGLEDALKAEQKAPPGTARRKRKADSRKKFVESASSKPGPRGFGSGN
As for B1, the Kd in assay [1] is 76 nM and 128 nM.

B2: cpSRP-Y204A (cpSRP assembled from cpSRP43-Y204A and cpSRP54) (complex)
chain 1: B1 chain 1 with Y148A
chain 2: B1 chain 2
Turning to B2, in assay [1], the Kd is above 5000 nM.

B3: cpSRP-R161A (cpSRP assembled from cpSRP43-R161A and cpSRP54) (complex)
chain 1: B1 chain 1 with R105A
chain 2: B1 chain 2
As for B3, in assay [1], binding was characterised by a dissociation constant (Kd) of 1200 nM.

B4: cpSRP43 ΔCD2ΔCD3 (CD1–Ank4 fragment) (domain or fragment)
chain: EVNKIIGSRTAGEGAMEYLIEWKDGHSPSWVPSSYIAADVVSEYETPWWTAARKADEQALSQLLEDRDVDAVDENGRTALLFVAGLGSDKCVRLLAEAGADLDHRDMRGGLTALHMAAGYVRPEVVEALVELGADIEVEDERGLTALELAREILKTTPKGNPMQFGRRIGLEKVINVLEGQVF
Turning to B4, in assay [2], the Kd was above 10000 nM.
